Reference: paper PMC10318394

T1: phospholamban (PLN), wild type, in mouse heart (mouse), P61014
T1 chain: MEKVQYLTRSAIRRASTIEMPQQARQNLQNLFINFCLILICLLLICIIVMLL

T2: synthetic full-length PLN, P61014
T2 chain: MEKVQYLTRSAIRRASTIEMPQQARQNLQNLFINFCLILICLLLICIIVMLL


Assays:
[1] = biological target: T1, phospholamban (PLN), wild type, in …; test: SDS-PAGE and western blot; details: remark: other sources report otherwise
[2] = biological target: T2, synthetic full-length PLN, P61014; test: SDS-PAGE; details: remark: other sources report otherwise

| Binder | stoichiometry N [1] | stoichiometry N [2] |
| --- | --- | --- |
| phospholamban (PLN), wild type, in mouse heart, P61014 1-52 (natural protein) MEKVQYLTRSAIRRASTIEMPQQARQNLQNLFINFCLILICLLLICIIVMLL | 5 | – |
| synthetic full-length PLN, P61014 1-52 (natural protein) MEKVQYLTRSAIRRASTIEMPQQARQNLQNLFINFCLILICLLLICIIVMLL | – | 5 |
